Data published in patent US20140255299A1 (UNIVERSITY OF CENTRAL FLORIDA RESEARCH FOUNDATION, published 2014).

B1: Bax C-terminal 20-residue peptide (CT20p), wild type (peptide)
peptide: Ac-VTIFVAGVLTASLTIWKKMG-NH2
notes: Synthetic peptide of the last 20 amino acids of Bax; also called CT20 Bax WT; CT20 peptide
B2: Bax C-terminal 20-residue peptide, lysines replaced with leucines (charge neutralization mutant) (peptide)
peptide: VTIFVAGVLTASLTIWLLMG
notes: K189/K190 replaced by LL; also called CT20 Bax LL; CT20-LL
B3: Bax C-terminal 20-residue peptide, lysines replaced with glutamates (charge reversal mutant) (peptide)
peptide: VTIFVAGVLTASLTIWEEMG
notes: K189/K190 replaced by EE; also called CT20 Bax EE; CT20-EE

Molecular target: the molecule itself
Assay: kinetics of calcein release from lipid vesicles; peptide self-association within the membrane

Binding result, binds:
B1, B2, B3
